B1: tRNA^Sep: amber suppressor tRNA derived from Mj tRNA^Cys with C20U change and two anticodon mutations; SEQ ID NO:41 (nucleic acid)
chain: GCCGGGGTAGTCTAGGGGTTAGGCAGCGGACTGCAGATCCGCCTTACGTGGGTTCAAATCCCACCCCCGGCT
modifications: expressed or natural sequence

Key:
E. coli Top10ΔserB = assay: CAT (UAG at position 112) suppression assay, chloramphenicol resistance; type: cell-based, Escherichia coli
Protocol: The suppressor tRNA^Sep was coexpressed with the indicated enzymes in E. coli Top10ΔserB. Selection was carried out on LB agar plates containing 2 mM Sep and various concentrations of chloramphenicol.
pCAT112TAG-SepT was created from pACYC 184. The gene encoding chloramphenicol acetyltransferae (CAT) was modified by quickchange mutagenesis to introduce an amber stop codon at position Asp112 (Wang L, et al. Science 292:498 (2001)). The resulting plasmid was PCR amplified using primers PBLAF (5′-TGCGCAATGCGGCCGCCCGTAGCGCCGATGGTAGTGT-3′, SEQ ID NO:9) and PBLAR (5′-ACACGGAGATCTCTAAAGTATATATGAGTAAAC-3′, SEQ ID NO: 10) and ligated with a PCR product containing a tRNA^Sep expression cassette from pSepT, created with primers TSEPF (5′-GCATGCGCCGCCAGCTGTTGCCCGTCTCGC-3′, SEQ ID NO:17) and TSEPR (5′-GCATAGATCTTCAGCTGGCGAAAGGGGGATG-3′, SEQ ID NO:18).
Efficient and selective addition of Sep to the E. coli genetic repertoire requires exclusive interaction of SepRS with tRNA^Sep for Sep-tRNA^Sep formation without interfering in the host translation system as well as a sufficient intracellular concentration of Sep. As E. coli has a Sep-compatible transporter (Wanner, B L. FEMS Microbiol Lett 79, 133 (1992)), Sep (2 mM) was added to the growth medium, and the endogenous serB gene encoding phosphoserine phosphatase was deleted in the E. coli test strain. To assess whether the Mj tRNA^Sep/Mmp SepRS pair is functional and orthogonal in E. coli, a suppression assay was performed that employed a chloramphenicol acetyltransferase (CAT) gene with a UAG stop codon at the permissive position 112 (wild-type amino acid: Asp) to produce chloramphenicol (Cm) acetyltransferase; then cell survival was measured in the presence of Sep and varying amounts of Cm. The different IC50 values (FIG. 2) relate to suppression efficiency (i.e., amount of CAT made dependent on the various transformed genes). When only tRNA^Sep is expressed (FIG. 2, second bar) Cm resistance increases about 3.3-fold over background (FIG. 2, first bar). Thus, tRNA^Sep can be aminoacylated to a certain degree by an unknown E. coli aminoacyl-tRNA synthetase (Gln is being incorporated at the amber stop codon). […] This may indicate that SepRS can out-compete any endogenous aminoacyl-tRNA synthetase and form Sep-tRNAS^Sep; however, this aminoacyl-tRNA is not delivered to the ribosome or not accommodated on the ribosome. […] Co-expression of tRNA^Sep, SepRS and SepCysS should result in formation of Sep-tRNA^Sep and subsequent SepCysS-mediated conversion to Cys-tRNA^Sep (A. Sauerwald et al., Science 307, 1969 (2005)). Indeed, a 2.3-fold increase in Cm resistance is observed (FIG. 2, sixth bar). This further supports the notion that while Sep-tRNA^Sep is synthesized, it cannot be used properly by the E. coli protein biosynthesis machinery.
Resulting pKD-SepRS-EFTu plasmids were transformed into E. coli Top10ΔserB containing pCAT112-SepT for a third round of selection which was carried out under the same conditions as the first. This time, individual colonies were isolated from agar plates and clones were tested for their ability to grow on Cm over a concentration range from […]. Total plasmid was purified from isolates showing strong Cm resistance, and pKD-SepRS-EFTu plasmids were subjected to sequencing. […]

[^35S]Cys-tRNA^Cys = EF-Tu hydrolysis protection assay with Cys-tRNA^Cys; type: binding, Methanocaldococcus jannaschii; conditions: pH 8.2; FIG. 5A
Protocol: FIGS. 5A and 5B are graphs showing EF-Tu protects Cys-tRNA^Cys(FIG. 5A) but not Sep-tRNA^Cys (FIG. 5B) from deacylation. Hydrolysis of M. jannaschii [^35S]Cys-tRNA^Cys or [^14C]Sep-tRNA^Cys was determined at pH 8.2 and room temperature in the presence or absence of EF-Tu.
Given that EF-Tu is a component of quality control in protein synthesis (LaRiviere, FJ., et al. Science 294, 165 (2001)), it is highly plausible that Sep-tRNA^Sep may be rejected by EF-Tu in order not to interfere with the complicated cellular mechanism of phosphoprotein production. […] This assumption was tested in EF-Tu mediated Sep-tRNA hydrolysis protection experiments (J. Ling et al., Proc Natl Acad Sci USA 104, 15299 (2007)), and incubated recombinant E. coli EF-Tu with the Mj tRNA^Cys in vitro transcript either acylated with [^35S]Cys or [^14C]Sep at pH 8.2. […]
(§1) To assay hydrolysis protection of acylated tRNA^Cys by EF-Tu, […] tRNA^Cys in vitro transcripts acylated with [^14C]Sep or [^35S]Cys, respectively, were phenol/chlorophorm extracted, and the aqueous phase was passed over Sephadex® G25 Microspin columns (GE Healthcare) equilibrated with water. […] Hydrolysis of 2 μM [^14C]Sep-tRNA^Cys was then monitored at 25° C. in the presence of 40 μM EF-Tu (wt), EF-Sep, or BSA, respectively. […] Filters were washed with 5% trichloroacetic acid, dried, and radioactivity was measured by liquid scintillation counting.

[^14C]Sep-tRNA^Cys = EF-Tu hydrolysis protection assay with Sep-tRNA^Cys; type: binding, Methanocaldococcus jannaschii; conditions: pH 8.2; 40 μM factor, 2 μM [^14C]Sep-tRNA^Cys, 25° C.; FIG. 3 and FIG. 5B
Protocol: Protection of Sep-tRNA^Cys by EF-Tu was assayed as described earlier with slight modifications (Ling J, et al. RNA. 2007 November; 13(11):1881-6.). Briefly, EF-Tu or EF-Sep (both purified as maltose binding protein fusion proteins) were activated for 20 min. at 37° C. in buffer containing 100 mM Tris-HCl (pH 8.2), 120 mM NH4Cl, 7 mM MgCl2, 5 mM DTT, 5 mM phosphoenolpyruvate, 1.5 mM GTP, and 0.12 μg/μl pyruvate kinase. Hydrolysis of 2 μM [^14C]Sep-tRNA^Cys was then monitored at 25° C. in the presence of 40 μM EF-Tu (wt), EF-Sep, or BSA, respectively. Aliquots were taken from the reaction mix at indicated time points and spotted on 3MM filter discs presoaked with 10% trichloroacetic acid. Filters were washed with 5% trichloroacetic acid, dried, and radioactivity was measured by liquid scintillation counting.
as §1

Mmp SepRS = assay: In vitro aminoacylation of tRNA with Sep by Mmp SepRS; type: biochemical, Methanococcus maripaludis
Protocol: In vitro transcript of Methanocaldococcus jannaschii tRNA^Cys was prepared and acylated with [^14C]Sep (55 mCi/mmol) using recombinant Methanococcus maripaludis SepRS as described previously by Hohn M J, et al. Proc Natl Acad Sci USA. 2006 Nov. 28; 103(48):18095-100. Sep-tRNA^Cys was phenol/chlorophorm extracted, and the aqueous phase was passed over Sephadex G25 Microspin columns (GE Healthcare) equilibrated with water.
Total tRNA from E. coli Top10 or from E. coli Top10 complemented with pCysT or pSepT, respectively, was purified by standard procedures and acylated with [^14C]Sep by M. maripaludis SepRS as described previously. […] M. jannaschii tRNA^Cys contains m^1G37 when isolated from M. jannaschii. Since the E. coli methylase TrmD is known to methylate G37 of archaeal tRNA^Pro, it is believed that the in vivo expressed tRNA^Sep also carries the m^1G37 modification. In vitro transcript of M. jannaschii tRNA^Cys was prepared and acylated with [^14C]Sep or [^35S]Cys using recombinant M. maripaludis SepRS or CysRS. M. jannaschii tRNA^Cys transcript was chosen for these experiments because of the poor folding properties of in vitro transcribed M. maripaludis tRNA^Cys (Hohn, M. J. Proc Natl Acad Sci USA 103, 18095 (2006)).

Mmp SepRS, sequence (as listed by the source): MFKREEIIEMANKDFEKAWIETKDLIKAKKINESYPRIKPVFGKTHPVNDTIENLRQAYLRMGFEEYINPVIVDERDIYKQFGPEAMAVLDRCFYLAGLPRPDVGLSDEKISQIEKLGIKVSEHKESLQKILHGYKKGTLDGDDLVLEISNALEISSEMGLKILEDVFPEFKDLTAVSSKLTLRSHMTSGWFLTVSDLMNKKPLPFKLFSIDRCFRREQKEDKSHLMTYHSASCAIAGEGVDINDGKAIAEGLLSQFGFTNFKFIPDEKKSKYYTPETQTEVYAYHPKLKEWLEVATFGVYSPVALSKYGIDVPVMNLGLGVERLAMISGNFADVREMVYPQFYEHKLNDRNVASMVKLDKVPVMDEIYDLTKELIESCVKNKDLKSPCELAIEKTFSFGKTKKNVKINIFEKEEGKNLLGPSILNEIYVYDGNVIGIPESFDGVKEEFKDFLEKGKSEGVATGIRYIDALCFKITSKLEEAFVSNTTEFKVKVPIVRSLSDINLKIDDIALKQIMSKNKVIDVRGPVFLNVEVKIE

| Molecule | Cm resistance (E. coli Top10ΔserB; tRNA^Sep and SepRS plus additional EF-Tu, FIG. 2 fifth bar) | protection of Cys-tRNA^Cys from deacylation ([^35S]Cys-tRNA^Cys) | protection of Sep-tRNA^Cys from deacylation ([^14C]Sep-tRNA^Cys) | increase in Cm resistance (E. coli Top10ΔserB; co-expression of tRNA^Sep and Mmp CysRS, FIG. 2 eight bar) | increase in Cm resistance (E. coli Top10ΔserB; co-expression of tRNA^Sep, SepRS and SepCysS, FIG. 2 sixth bar) | increase in Cm resistance over background (E. coli Top10ΔserB; only tRNA^Sep expressed, 2 mM Sep, FIG. 2 second bar) | Cm resistance (E. coli Top10ΔserB; simultaneous expression of tRNA^Sep and SepRS, FIG. 2 third bar) | activity of tRNA^Sep when compared to tRNA^Cys (Mmp SepRS; in vitro aminoacylation by Mmp SepRS, tRNA overexpressed in E. coli, effect of the anticodon change, FIG. 1C) | improvement of aminoacylation by SepRS through the C20U change (Mmp SepRS; tRNA^Sep derived from Mj tRNA^Cys, no effect on CysRS recognition) |
| --- | --- | --- | --- | --- | --- | --- | --- | --- | --- |
| EF-Tu: wild type recombinant E. coli elongation factor Tu | does not improve the result | protected | significantly deacylated irrespective of the presence of EF-Tu |  |  |  |  |  |  |
| B1 |  |  |  | 12.3 fold | 2.3 fold | about 3.3 fold | does not provide Cm resistance | about 40% | 2.5 fold |

From patent US9580716B2, “Site-specific incorporation of phosphoserine into proteins in Escherichia coli” (Yale University, priority 2010, dated 2017)
